Measured values taken from article PMC6599559 (2019).

Target: eEF-2 (Homo sapiens, UniProt P13639)
Experiment: kinase inhibition assay

- Ki: ~9 µM
B1: eEF-2K 562-725 (protein)
chain: GELEAIVGLGLMYSQLPHHILADVSLKETEENKTKGFDYLLKAAEAGDRQSMILVARAFDSGQNLSPDRCQDWLEALHWYNTALEMTDCDEGGEYDGMQDEPRYMMLAREAEMLFTGGYGLEKDPQRSGDLYTQAAEAAMEAMKGRLANQYYQKAEEAWAQMEE
